Experimental data from the Human Domainome abundance scans (Beltran et al. 2025).

B1: Ubiquitin-protein ligase residues 30 to 86; numbered along this chain, Q05086 (parent)
chain: KHLIERYYHQLTEGCGNEACTNEFCASCPTFLRMDNNAAAIKALELYKINAKLCDPH

Variants of: B1
Test: abundance fitness (aPCA) (normalised: wild type 0, dead -1); higher = more abundant; growth selection in yeast, the domain comes from the species named
Settings: Homo sapiens

Abundance fitness, by site and new letter:
E13: V -0.071; P -1.02; I -0.048; L 0.006; T -0.009; S 0.008; Y -0.01; R -0.02; F -0.047; M -0.093; K 0.041; H -0.006; W -0.163; D 0.055; Q 0.06; A 0.029
C15: E -0.943; L -1; R -0.912; H -0.576; S -1.07; Q -0.85; M -1.04; G -0.973; T -0.833; A -0.789; N -0.981; F -0.885; D -0.796; P -1.09; Y -0.944; W -0.969
N22: T -0.12; G -0.318; K -0.831; W -0.73; C -0.532; L -0.727; S -0.033; E -0.236; Q -0.286; P -0.916; I -0.492; V -0.301; R -0.638; H -0.345; F -0.418; M -0.478; D -0.602
N17: Q -0.087; L -0.071; P -0.091; R -0.042; M -0.096; E -0.029; V -0.05; Y -0.042; K 0.027; T 0.014; D -0.04; H -0.008; I -0.067; A -0.001; G -0.008; F -0.091; S -0.034; C -0.037; W 0.005
L3: P -0.204; D -0.264; V -0.474; A -0.334; Y -0.021; R -0.077; C -0.005; S -0.004; K 0.003; Q 0.014; W -0.049; M 0.048; I -0.039; G -0.129; E -0.206; N -0.057
T12: F -0.204; D -0.353; S -0.039; L -0.015; Q -0.079; W -0.359; V -0.028; I -0.062; E -0.355; M 0.03; R -0.073; P -0.998; A -0.128; G -0.569
G14: F -0.865; H -0.957; E -0.919; D -0.945; N -0.849; W -0.942; S -0.946; L -0.967; A -0.866; I -1.02; T -0.848; Y -1.02; Q -1.09; V -0.973; R -0.966
Y8: A -0.06; V -0.015; P -0.757; D -0.513; K 0.054; H -0.015; L 0.045; T 0.091; F -0.138; E -0.027; Q 0.116; S -0.06; W -0.181; N -0.097; G -0.212; I 0.018; R 0.028
A19: S -0.008; M 0.011; E 0.004; N -0.015; I -0.102; K -0.001; P -0.084; Y -0.1; W -0.073; C -0.12; L -0.045; V -0.013; G -0.015; D 0.023; R -0.022; H -0.006; F -0.031
G16: K -0.064; Q -0.059; S -0.062; M -0.179; A -0.049; E -0.049; N -0.061; D -0.041; F -0.221; L -0.11; R -0.127; V -0.2; I -0.33; C -0.049; P -0.132; Y -0.117; W -0.191
R6: I -0.151; H -0.027; D -0.028; N -0.006; P 0.011; L -0.097; E -0.078; K 0.029; V -0.044; F -0.147; M -0.079; Y -0.209; S -0.026; C -0.271; W -0.292; T -0.017; A -0.021
E5: L -0.123; R 0.015; S -0.01; Q 0.037; N 0.058; A -0.116; T -0.005; G -0.042; V -0.211; K 0.037; F -0.112; C -0.125; M -0.105; P -0.068; H -0.04; I -0.142; W -0.08
Q10: F -0.329; G -0.311; V -0.253; H -0.148; A -0.13; T -0.123; P -0.86; W -0.765; S -0.093; R -0.07; I -0.15; C -0.274; D -0.485; N -0.127; K -0.5; Y -0.277; E -0.868; L -0.198
T21: S -0.037; V -0.005; M -0.129; P -0.076; W -0.105; I -0.033; D -0.011; Q -0.046; A 0.029; F -0.008; R -0.038; L -0.086; N 0.067; Y -0.458; K 0.059; H 0.018; E 0.043; C -0.015; G -0.022
Y7: D -0.683; E -0.963; S -0.799; Q -0.781; A -0.448; N -0.658; R -0.925; C -0.65; W -0.184; M -0.215; F -0.034; K -0.796; G -0.77; H -0.289; L -0.154
I4: N -0.042; V -0.047; P -0.093; T 0.064; S 0.012; K 0.059; D -0.116; A -0.027; G -0.117; Q 0.058; L -0.159; W -0.208; R 0.004; E -0.032; C -0.113; F -0.15; M -0.087; Y -0.029
L11: C -0.153; N -0.774; V -0.036; R -0.872; W -0.904; K -0.848; T -0.201; M -0.14; G -0.681; Y -0.566; Q -0.41; E -0.843; P -0.865; D -0.834; S -0.425
E18: D -0.004; C -0.044; Q 0.076; F -0.181; S 0.001; G -0.054; V -0.023; L -0.056; M 0.006; K -0.089; W -0.151; H 0.014; T -0.003; Y -0.071; A 0; I -0.075; N 0.061; R -0.066
C20: Q -0.893; E -1.02; F -0.889; L -1.03; N -1.1; I -0.941; K -1.13; S -0.821; V -1.02; D -0.883; M -1.08; G -0.86; W -0.98; Y -0.717; P -1.03
H9: C -0.034; G -0.008; L 0.093; M -0.013; E -0.131; T 0.032; F -0.12; A 0.007; S 0.017; R 0.025; D -0.189; Q 0.05; P -0.771; W -0.055; K 0.077; V -0.014; I 0.015; Y -0.123
